Here are results for three molecules from patent US20240166695A1, “PEPTIDIC POSITIVE ALLOSTERIC MODULATORS TARGETING TRPV1” (priority 2021, published 2024).

For assay [1], the target named is TRPV1-YFP. As to the kind of experiment: FRET ratio regression, design-CFP and TRPV1-YFP co-expressed in HEK293 cells. Further details: Apparent KD (FRET ratio fit): unit not given here.
In assay [2] the target is TRPV1-YFP. In words: spectraFRET in live HEK293 cells, CFP on design, YFP on TRPV1; indistinguishable from CFP+YFP negative control.
The target in assay [3] is TRPV1-YFP. In words: spectraFRET in live HEK293 cells, CFP on design, YFP on TRPV1.

B1: De4-CFP (designed binder, not shown: large carriers)
chain: LPESPRFAQKIWQQSVIGDYLARFKNDRVKALKAMEDSSNNSSMHRFAEFFAKAFEDLHRYLEEL
As for B1, the Apparent KD (FRET ratio fit) in assay [1] was 9.5e+09. The FRET efficiency in assay [2] was 3.8%.

B2: De1-CFP (designed binder, not shown: large carriers)
chain: NGYSSEDKLRIAKRHLLPKQIERNALKKGELFVSEFAILGIILFYTDEAGVRGLEREISKLCRKAVKQLLLDKSTTSSHASGFHLHDYLGVMR
For B2, in assay [1], the Apparent KD (FRET ratio fit) amounted to 120000 and the FRET ratio max amounted to 3.86.

B3: De2-CFP (designed binder, not shown: large carriers)
chain: NGYWSEDKERIAKRHLLPKQIERNALKKGELKVWEFAIFGIILFYTWEAGVRGLEREISKLCRKAVKQLLLDKSTTRSWASGFHLHDYLGVMR
With B3, in assay [1], the Apparent KD (FRET ratio fit) was found to be 75000 and the FRET ratio max stood at 2.35. This molecule also displayed an FRET efficiency in assay [3] of 7.4%.
